The target of the assay is TrkB (Homo sapiens (Human), UniProt Q16620 32-430). Nature of the assay: koff of Fab at 25 C; T1/2=Log2/koff. Put shortly:
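Monovalent Fab fragments were tested at 25° C by surface plasmon resonance on a Biacore instrument, against TrkB extracellular-domain monomer amine-coupled to the chip at low capacity. Fabs were injected low to high as a 3-fold serial dilution from 100 nM for 84 sec, with a 10 minute dissociation after the top sample. The dissociation half-life was calculated from koff, which was fitted to a Langmuir binding model in BIAevaluation. The formula used was T1/2 = Log 2/koff.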

Positions count from the first letter of the chain named.

Chain of TrkB (Q16620 32-430 limits assumed): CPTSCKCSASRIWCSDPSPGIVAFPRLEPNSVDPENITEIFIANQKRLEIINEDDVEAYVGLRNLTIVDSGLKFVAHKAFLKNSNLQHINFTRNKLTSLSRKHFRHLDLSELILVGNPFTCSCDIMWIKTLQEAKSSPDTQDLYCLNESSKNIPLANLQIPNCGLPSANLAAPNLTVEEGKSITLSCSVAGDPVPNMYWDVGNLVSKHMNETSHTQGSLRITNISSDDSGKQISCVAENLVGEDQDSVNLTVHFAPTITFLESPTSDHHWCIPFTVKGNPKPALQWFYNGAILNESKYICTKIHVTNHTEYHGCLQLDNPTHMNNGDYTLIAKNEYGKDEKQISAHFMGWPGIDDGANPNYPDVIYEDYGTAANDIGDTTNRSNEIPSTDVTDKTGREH

B1: 3-G7 (Fab, V domains shown)
VH: QVQLVQSGAEVKKPGASVKVSCKASGYTFTNYVILWVRQAPGQGLEWMGYINPYNDGTKYNEKFKGRVTMTRDTSTSTVYMELSSLRSEDTAVYYCARLLKYRRFSYYAEDYWGQGTTVTVSS
VL: DIQMTQSPSSLSASVGDRVTITCRASENVYSNLAWYQQKPGKAPKLLIYAASNLQSGVPSRFSGSGSGTDFTFTISSLQPEDIATYYCQNFWYSPFTFGQGTKLEIK
notes: Fab
Molecule B1 had a T1/2 of 0.92 min.

B2: 4B12-26 (Fab, V domains shown)
VH: B1 VH with V33D, L35I, D56G, G57R, T58R, K59E, S106A, E110I
VL: B1 VL with N28P, L33V, F71Y, N90H, Y93G
notes: Fab
On to B2, for which the T1/2 stood at 8.1 min.

B3: 4B12-15 (Fab, V domains shown)
VH: B1 VH with V33D, L35I, N52A, D56G, G57R, T58R, K59E, S106R, E110I
VL: B1 VL with N28P, L33V, F71Y, N90H, Y93G
notes: Fab
Turning to B3, the T1/2 turned out to be 2.7 min.

B4: 5-E2 (Fab, V domains shown)
VH: B1 VH with S106K, E110I
VL: B1 VL with N90H
notes: Fab
Molecule B4 yielded a T1/2 of 1.66 min.

B5: 4B12-28 (Fab, V domains shown)
VH: B1 VH with V33D, L35I, D56G, G57R, T58R, K59E, F105E, S106R, E110I
VL: B1 VL with N28P, L33V, F71Y, N90H, Y93G
notes: Fab
For the molecule B5, the T1/2 came to 5.4 min.

B6: 4-B2 (Fab, V domains shown)
VH: B1 VH with S106R, E110I
VL: B1 VL with N90H, Y93G
notes: Fab
Regarding B6, the T1/2 worked out at 1.33 min.

B7: 4-D4 (Fab, V domains shown)
VH: B1 VH with S106R, E110I
VL: B1 VL with N90H
notes: Fab
With B7, the T1/2 turned out to be 1.24 min.

B8: 6-B4 (Fab, V domains shown)
VH: B1 VH with S106Q, E110I
VL: B1 VL with N90H
notes: Fab
On to B8, for which the T1/2 is 1.55 min.

B9: 4-F10 (Fab, V domains shown)
VH: B1 VH with E110I
VL: B1 VL with N90Q
notes: Fab
Molecule B9 registered a T1/2 of 1.03 min.

B10: 5-D1 (Fab, V domains shown)
VH: B1 VH with S106R, E110I, Y112V
VL: B1 VL
notes: Fab
B10 gave a T1/2 of 1.61 min.

B11: 4B12-18 (Fab, V domains shown)
VH: B1 VH with V33D, L35I, N55A, D56G, G57R, T58R, K59E, S106R, E110I
VL: B1 VL with N28P, L33V, F71Y, N90H, Y93G
notes: Fab
In turn, B11 showed a T1/2 of 3.8 min.

B12: 4B12-8 (Fab, V domains shown)
VH: B1 VH with V33D, L35I, D56G, G57R, T58R, S106R, E110I
VL: B1 VL with N28P, L33V, F71Y, N90H, Y93G
notes: Fab
On to B12, for which the T1/2 was determined as 13.8 min.

B13: 4B12-6 (Fab, V domains shown)
VH: B1 VH with V33D, L35I, D56G, T58R, K59E, S106R, E110I
VL: B1 VL with N28P, L33V, F71Y, N90H, Y93G
notes: Fab
On to B13, for which the T1/2 came to 3.7 min.

B14: 5-B8 (Fab, V domains shown)
VH: B1 VH with S106R, E110I
VL: B1 VL with N90Q
notes: Fab
For B14, the T1/2 was 1.82 min.

B15: 4B12-20 (Fab, V domains shown)
VH: B1 VH with V33D, L35I, D56G, G57R, T58R, K59E, N61A, S106R, E110I
VL: B1 VL with N28P, L33V, F71Y, N90H, Y93G
notes: Fab
With B15, the T1/2 was found to be 12.2 min.

B16: 6-C10 (Fab, V domains shown)
VH: B1 VH with S106R, E110I
VL: B1 VL with N90H, P95W
notes: Fab
B16 showed a T1/2 of 1.55 min.

B17: 4B12-24 (Fab, V domains shown)
VH: B1 VH with V33D, L35I, D56G, G57R, T58R, K59E, E110I
VL: B1 VL with N28P, L33V, F71Y, N90H, Y93G
notes: Fab
With B17, the T1/2 was 6 min.

B18: 4B12-19 (Fab, V domains shown)
VH: B1 VH with V33D, L35I, D56G, G57R, T58R, K59E, Y60A, S106R, E110I
VL: B1 VL with N28P, L33V, F71Y, N90H, Y93G
notes: Fab
B18 displayed a T1/2 of 13.1 min.

B19: 4B12-21 (Fab, V domains shown)
VH: B1 VH with V33D, L35I, D56G, G57R, T58R, K59E, K101A, S106R, E110I
VL: B1 VL with N28P, L33V, F71Y, N90H, Y93G
notes: Fab
Molecule B19 returned a T1/2 of 0.3 min.

B20: 4B12-7 (Fab, V domains shown)
VH: B1 VH with V33D, L35I, D56G, G57R, K59E, S106R, E110I
VL: B1 VL with N28P, L33V, F71Y, N90H, Y93G
notes: Fab
For the molecule B20, the T1/2 came out at 7.6 min.

B21: 4B12-3 (Fab, V domains shown)
VH: B1 VH with V33D, L35I, N55V, D56G, G57R, T58R, K59E, S106R, E110I
VL: B1 VL with N28P, L33V, F71Y, N90H, Y93G
notes: Fab
For the molecule B21, the T1/2 is 6.6 min.

B22: 4-E1 (Fab, V domains shown)
VH: B1 VH with R104A, E110I
VL: B1 VL with N90H, Y93G
notes: Fab
In turn, B22 gave a T1/2 of 0.71 min.

B23: 4B12-16 (Fab, V domains shown)
VH: B1 VH with V33D, L35I, P53A, D56G, G57R, T58R, K59E, S106R, E110I
VL: B1 VL with N28P, L33V, F71Y, N90H, Y93G
notes: Fab
For the molecule B23, the T1/2 is 5.6 min.

B24: 3-H8 (Fab, V domains shown)
VH: B1 VH with S106R, E110I
VL: B1 VL with N90H, T97V
notes: Fab
Turning to B24, the T1/2 was 0.81 min.

B25: 4B12-23 (Fab, V domains shown)
VH: B1 VH with V33D, L35I, D56G, G57R, T58R, K59E, R104A, S106R, E110I
VL: B1 VL with N28P, L33V, F71Y, N90H, Y93G
notes: Fab
As for B25, the T1/2 worked out at 10.8 min.

B26: 4A6-12 (Fab, V domains shown)
VH: B1 VH with V33D, L35I, D56R, G57R, T58R, S106R, E110I
VL: B1 VL with R24H, F71Y, N90H, Y93G
notes: Fab
In the case of B26, the T1/2 turned out to be 74.2 min.

B27: 4B12-17 (Fab, V domains shown)
VH: B1 VH with V33D, L35I, Y54A, D56G, G57R, T58R, K59E, S106R, E110I
VL: B1 VL with N28P, L33V, F71Y, N90H, Y93G
notes: Fab
In turn, B27 had a T1/2 of 1 min.

B28: 5-B2 (Fab, V domains shown)
VH: B1 VH with E110I
VL: B1 VL with N90H, W92D
notes: Fab
B28 came in with a T1/2 of 1.55 min.

B29: 6-A6 (Fab, V domains shown)
VH: B1 VH with S106K, E110I
VL: B1 VL with N90H, T97V
notes: Fab
For B29, the T1/2 came out at 1.59 min.

B30: 4B12-2 (Fab, V domains shown)
VH: B1 VH with V33D, L35I, N55Q, D56G, G57R, T58R, K59E, S106R, E110I
VL: B1 VL with N28P, L33V, F71Y, N90H, Y93G
notes: Fab
For B30, the T1/2 is 5.8 min.

B31: 4B12-13 (Fab, V domains shown)
VH: B1 VH with V33D, L35I, D56G, G57R, T58R, K59E, E62A, S106R, E110I
VL: B1 VL with N28P, L33V, F71Y, N90H, Y93G
notes: Fab
In turn, B31 came in with a T1/2 of 13.7 min.

B32: 4-C7 (Fab, V domains shown)
VH: B1 VH with E110I
VL: B1 VL with N90H, Y93G
notes: Fab
With B32, the T1/2 was 1.4 min.

B33: 4B12-27 (Fab, V domains shown)
VH: B1 VH with V33D, L35I, D56G, G57R, T58R, K59E, Y102A, S106R, E110I
VL: B1 VL with N28P, L33V, F71Y, N90H, Y93G
notes: Fab
B33 came in with a T1/2 of 0.5 min.

B34: 4B12-4 (Fab, V domains shown)
VH: B1 VH with V33D, L35I, D56A, G57R, T58R, K59E, S106R, E110I
VL: B1 VL with N28P, L33V, F71Y, N90H, Y93G
notes: Fab
With B34, the T1/2 stood at 11.4 min.

B35: 4B12-14 (Fab, V domains shown)
VH: B1 VH with V33D, L35I, N52S, D56G, G57R, T58R, K59E, S106R, E110I
VL: B1 VL with N28P, L33V, F71Y, N90H, Y93G
notes: Fab
In the case of B35, the T1/2 was 3.2 min.

B36: 4B12-29 (Fab, V domains shown)
VH: B1 VH with V33D, L35I, D56G, G57R, T58R, K59E, F105A, S106R, E110I
VL: B1 VL with N28P, L33V, F71Y, N90H, Y93G
notes: Fab
Take B36: the T1/2 turned out to be 5.6 min.

B37: 5-B1 (Fab, V domains shown)
VH: B1 VH with S106T, E110I, D111H
VL: B1 VL with N90H
notes: Fab
For B37, the T1/2 was determined as 1.36 min.

B38: 4-A1 (Fab, V domains shown)
VH: B1 VH with E110I
VL: B1 VL with N90H, W92Y
notes: Fab
In turn, B38 showed a T1/2 of 0.93 min.

B39: 4B12-22 (Fab, V domains shown)
VH: B1 VH with V33D, L35I, D56G, G57R, T58R, K59E, R103A, S106R, E110I
VL: B1 VL with N28P, L33V, F71Y, N90H, Y93G
notes: Fab
Molecule B39 came in with a T1/2 of 3.5 min.

B40: 5-G4 (Fab, V domains shown)
VH: B1 VH with E110I
VL: B1 VL with N90H, Y93G
notes: Fab
Take B40: the T1/2 amounted to 1.35 min.

B41: 5-F1 (Fab, V domains shown)
VH: B1 VH with S106K, E110I
VL: B1 VL with N90H, T97L
notes: Fab
In turn, B41 had a T1/2 of 1.6 min.

B42: 4B12-25 (Fab, V domains shown)
VH: B1 VH with V33D, L35I, D56G, G57R, T58R, K59E, K101R, S106R, E110I
VL: B1 VL with N28P, L33V, F71Y, N90H, Y93G
notes: Fab
The molecule B42 came in with a T1/2 of 1.1 min.

B43: 4B12-5 (Fab, V domains shown)
VH: B1 VH with V33D, L35I, G57R, T58R, K59E, S106R, E110I
VL: B1 VL with N28P, L33V, F71Y, N90H, Y93G
notes: Fab
B43 gave a T1/2 of 16.1 min.

B44: 6-B11 (Fab, V domains shown)
VH: B1 VH with E110I
VL: B1 VL with N90H, Y93Q
notes: Fab
B44 registered a T1/2 of 1.44 min.

Values taken from patent US20100196390A1 (RINAT NEUROSCIENCE, published 2010).
